Results on one substance are retold here after paper PMC5238595.

For assay [1], the target named is A47934 PCP-X di-domain construct with maltose binding protein as N-terminal fusion partner (Streptomyces toyocaensis).
Assay [2] has as its target hybrid PCP-X construct: A47934 PCP-domain and teicoplanin X-domain, with MBP as N-terminal fusion partner (Streptomyces toyocaensis | Actinoplanes teichomyceticus) (UniProt Q70AZ6).
The target of assay [3] is hybrid PCP-X construct: teicoplanin PCP-domain and A47934 X-domain, with MBP as N-terminal fusion partner (Actinoplanes teichomyceticus | Streptomyces toyocaensis).
The target in assay [4] is PCP-X construct from teicoplanin biosynthesis with MBP as N-terminal fusion partner (Actinoplanes teichomyceticus) (UniProt Q70AZ6).

Sequence of UniProt Q70AZ6 (Q70AZ6 entry or part of it): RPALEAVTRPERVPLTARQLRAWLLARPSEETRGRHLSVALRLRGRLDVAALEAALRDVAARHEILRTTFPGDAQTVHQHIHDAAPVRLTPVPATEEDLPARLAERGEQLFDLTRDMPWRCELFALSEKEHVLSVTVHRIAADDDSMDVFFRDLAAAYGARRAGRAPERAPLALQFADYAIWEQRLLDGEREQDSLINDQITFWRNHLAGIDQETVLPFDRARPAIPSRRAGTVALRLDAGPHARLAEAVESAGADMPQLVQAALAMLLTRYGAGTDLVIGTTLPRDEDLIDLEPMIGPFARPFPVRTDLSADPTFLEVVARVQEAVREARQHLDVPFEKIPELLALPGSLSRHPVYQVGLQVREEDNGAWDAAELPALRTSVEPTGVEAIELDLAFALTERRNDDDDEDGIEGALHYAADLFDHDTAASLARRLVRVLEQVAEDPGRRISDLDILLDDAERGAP

With “StaF, the D-O-E ring forming Oxy enzyme (cytochrome P450) from A47934 biosynthesis”, in assay [1], the StaF turnover activity (bicyclic product / sum of mono- and bicyclic product, HPLC-MS) on Act7-rac-Hpg7 bound to MBP-PCP-Xsta, with StaH (entry 4) amounted to 25.5%; the StaF turnover activity (bicyclic product / sum of mono- and bicyclic product, HPLC-MS) on Tei7-L-Hpg7 bound to MBP-PCP-Xsta, with StaH (entry 1) came out at 23.8%. Moreover, in assay [2], the StaF turnover activity (bicyclic product / sum of mono- and bicyclic product, HPLC-MS) on Act7-rac-Hpg7 bound to MBP-PCPsta-Xtei, with StaH (entry 12) turned out to be 7.8%; the StaF turnover activity (bicyclic product / sum of mono- and bicyclic product, HPLC-MS) on Tei7-L-Hpg7 bound to MBP-PCPsta-Xtei, with StaH (entry 9) was 2.9%. Further, in assay [3], the StaF turnover activity (bicyclic product / sum of mono- and bicyclic product, HPLC-MS) on Act7-rac-Hpg7 bound to MBP-PCPtei-Xsta, with StaH (entry 16) amounted to 31.5%; the StaF turnover activity (bicyclic product / sum of mono- and bicyclic product, HPLC-MS) on Tei7-L-Hpg7 bound to MBP-PCPtei-Xsta, with StaH (entry 13) was 21.1%. Also, in assay [4], the StaF turnover activity (bicyclic product / sum of mono- and bicyclic product, HPLC-MS) on Act7-rac-Hpg7 bound to MBP-PCP-Xtei, with StaH (entry 8) is 24.9%; the StaF turnover activity (bicyclic product / sum of mono- and bicyclic product, HPLC-MS) on Tei7-L-Hpg7 bound to MBP-PCP-Xtei, with StaH (entry 5) was 5.7%.
